Laboratory results published in article PMC4368505 (Nature, 2015).

B1: Drosophila Orc4 (amino acid residues 1-459) (natural protein, UniProt Q9W102 1-459, looked up)
chain: MPEADRELVSIRRFLKERLQRDYTTLRGYAKERSNVRLLLQRTAEMGESNSLLLLGPRGSGKTTLINSVLADLLPNKSFGENTLIVHLDGNLHTDDRVALKSITVQMQLENAADGKVFGSFAENLAFLLQCLKAGGKHSKSVIFILEEFDLFCAHHNQTLLYNLFDVSQSAQAPICVLGVTCRLDVIELLEKRVKSRFSHRQVFLFPSLRRFEDYVDLCRDLLSLPTGNSLLLAAEKIYNLQNIQSGALYFSRNHFDPGEYGFSPRLRDAWNKQICKVLATQQARSTLQALHDFDISEAYLKNFLFRLVAHLRPQSPHITAEKMAAVGSQFEGDDKIELLCGLSVLELCLIIAIKHHSQIYDRDSFNFEIIYARFSKFAKVSTTMQAVERSIVLKAFEHLRIAELIMPLTGGAGGGVGKVQKEFEMHKLALTYSQIHHCMQRYQALPTEVAQWAQSSLI
B2: Drosophila Orc5 (amino acid residues 1-460) (natural protein, UniProt Q24169 1-460, looked up)
chain: MEAICSSLEPLFPCREAAIETLGELIGDSSETYPSAIYLFGHSGTGKTALTRAFLKECGKRQNVRTAHLNAIECYTTKIMLEILLDSLAPDQGDALKVDNMLDFVEQLRRQAATRVEDQGFLIAVDNAERLRDMDANVLPVLLRLQELTNLNLCVILLSQLPFEKFYNKTGLSEIVCLHLAQYNKAETQRILGSDFQQVRNQLLEQFAQDKKRLEICQEAVTEDFYNNYLNLFLSVFYKACRDVPELQLTARKCLSTYLEPVLDGTVDATDISRLWRHIAGPLRSALTQIYMRIEKPAEEVEDFTAIEDQSVRKLAQSLELPYYAKFLLIAAFLASHNAAKQDKRLFVKHHGKQRKRMQTVNARAKTTEKMSTTLGPKSFSIDRLLAIFYAILEEKVGLTCNLLSQISTLVHLNLLSFVSGEQNIMEGSARLQCTIGLEFVLQIGKVVGFNVRQYLCDFM
B3: Drosophila Orc1 (amino acid residues 533-924) of the trimmed ORC core (domain or fragment, UniProt O16810 533-924, looked up)
chain: SPSMQQRTDLPAKDSSKSELQLAREQLHVSVVPKSLPCREREFENIYAFLEGKIQDQCGGCMYVSGVPGTGKTATVTGVIRTLQRMAKQNELPAFEYLEINGMRLTEPRQAYVQIYKQLTGKTVSWEQAHALLEKRFTTPAPRRVTTVLLVDELDILCNRRQDVVYNLLDWPTKSAAKLVVVTIANTMDLPERLLMGKVTSRLGLTRLTFQPYSHKQLQEIVTARLGGSETFKGEAVQLVARKVAAVSGDARRALDICRRATEIADTAAVKCVTMLHVQQALAEMIASAKVQAIRNCSRMEQIFLQAIAAEVTRTGVEETTFMGVYQQVETIAAFMGVTFPPPGRALRLCSKLGAERLIISEHSRNDLFQKILLNVSADDIHYALRVEEMVN

Key:
Assay in all cases: crystal structure
[1] = biological target: B2
[2] = biological target: T1, Drosophila Orc3 (amino acid residues 47-721) of the trimmed ORC core (Drosophila, UniProt Q7K2L1 47-721)
T1 sequence (looked up): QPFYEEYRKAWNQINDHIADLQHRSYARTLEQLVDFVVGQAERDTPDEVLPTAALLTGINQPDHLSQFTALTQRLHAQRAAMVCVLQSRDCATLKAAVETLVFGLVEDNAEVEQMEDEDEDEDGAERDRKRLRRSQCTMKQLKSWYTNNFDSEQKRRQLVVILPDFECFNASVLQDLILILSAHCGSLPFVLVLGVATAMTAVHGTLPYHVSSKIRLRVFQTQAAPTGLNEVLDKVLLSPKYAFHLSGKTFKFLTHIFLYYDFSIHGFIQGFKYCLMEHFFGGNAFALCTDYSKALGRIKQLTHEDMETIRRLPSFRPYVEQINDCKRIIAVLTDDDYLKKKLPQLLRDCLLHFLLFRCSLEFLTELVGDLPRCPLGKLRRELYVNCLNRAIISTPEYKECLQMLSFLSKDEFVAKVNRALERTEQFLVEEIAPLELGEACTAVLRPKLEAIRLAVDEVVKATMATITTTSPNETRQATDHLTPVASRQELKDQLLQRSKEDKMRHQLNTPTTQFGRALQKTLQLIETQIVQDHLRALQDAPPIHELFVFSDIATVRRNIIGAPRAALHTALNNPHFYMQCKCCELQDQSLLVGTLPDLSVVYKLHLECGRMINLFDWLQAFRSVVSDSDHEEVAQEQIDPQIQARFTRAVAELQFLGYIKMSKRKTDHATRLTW

[3] = biological target: B1
[4] = biological target: B3

| Binder | binding result [1] | binding result [2] | binding result [3] | binding result [4] |
| --- | --- | --- | --- | --- |
| B1 | binds |  |  |  |
| B2 |  | binds |  |  |
| B3 |  | binds | binds |  |
| Drosophila Orc2 (amino acid residues 266-618) of the trimmed ORC core (domain or fragment, UniProt Q24168 266-618, looked up) QSARAKKSNEFVPESDGYFHSHASSKILTSDHTLDRLKNPRLAADRVFSLLSEIKTSAEHEGSINAIMEEYRSYFPKWMCILNEGFNILLYGLGSKHQLLQSFHREVLHKQTVLVVNGFFPSLTIKDMLDSITSDILDAGISPANPHEAVDMIEEEFALIPETHLFLIVHNLDGAMLRNVKAQAILSRLARIPNIHLLASIDHINTPLLWDQGKLCSFNFSWWDCTTMLPYTNETAFENSLLVQNSGELALSSMRSVFSSLTTNSRGIYMLIVKYQLKNKGNATYQGMPFRDLYSSCREAFLVSSDLALRAQLTEFLDHKLVKSKRSVDGSEQLTIPIDGALLQQFLEEQEKK |  | binds |  | binds |
